T1: human CD70 expressed on the surface of cells (human, UniProt P32970 1-193)
T1 sequence (looked up): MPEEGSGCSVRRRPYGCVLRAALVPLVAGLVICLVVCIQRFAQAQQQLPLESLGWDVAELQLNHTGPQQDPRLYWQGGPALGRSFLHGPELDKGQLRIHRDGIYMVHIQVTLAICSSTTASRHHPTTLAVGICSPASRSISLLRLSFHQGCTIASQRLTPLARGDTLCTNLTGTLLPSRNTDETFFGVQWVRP

T2: recombinant human CD70 (Flag-TNC-CD70) (human, UniProt P32970 39-193)
T2 construct: extracellular domain; Captured by anti-Flag mAb in ELISA; as 'recombinant human CD70' immobilised on Biacore CM5 chips; TNC is for trimerisation; also called recombinant CD70; human recombinant CD70; not shown: Flag tag and TNC trimerisation domain
T2 sequence (looked up): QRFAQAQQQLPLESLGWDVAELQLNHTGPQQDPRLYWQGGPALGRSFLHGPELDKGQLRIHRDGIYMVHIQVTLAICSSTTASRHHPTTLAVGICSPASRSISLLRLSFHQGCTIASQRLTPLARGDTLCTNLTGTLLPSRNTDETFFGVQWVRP

B1: 57B6 chimeric llama-human mAb (antibody, human IgG1, V domains shown)
VH: QLQLVESGGGLVQPGGSLRLSCAASGFSFSHYAMSWVRQAPGKGLEWVSGDNTYDGGTRYQDSVKGRFTISRDNGKNTLYLQMNSLKPEDTAVYYCAKDTGRGIMGEYGMDYWGKGTLVTVSS
VL: QTVVTQEPSLSVSPGGTVTLTCGLKSGSVTSSNYPAWYQQTPGQAPRLLIYNTNSRHSGVPSRFSGSISGNKAALTITGAQPEDEADYYCALYMGSGSANAMFGGGTHLTVLG
B2: ARGX-110 Fab (Fab, V domains shown)
VH: EVQLVESGGGLVQPGGSLRLSCAASGFTFSVYYMNWVRQAPGKGLEWVSDINNEGGTTYYADSVKGRFTISRDNSKNSLYLQMNSLRAEDTAVYYCARDAGYSNHVPIFDSWGQGTLVTVSS
VL: QAVVTQEPSLTVSPGGTVTLTCGLKSGSVTSDNFPTWYQQTPGQAPRLLIYNTNTRHSGVPDRFSGSILGNKAALTITGAQADDEAEYFCALFISNPSVEFGGGTQLTVLG

What was measured:
[1] = target: T1, human CD70 expressed on the surface of …; assay: cell-based or functional assay
[2] = target: T1, human CD70 expressed on the surface of …; assay: flow cytometry on MHH-PREB-1 cells; anti-human IgG-FITC
Protocol: In a further experiment, NHL-derived MHH-PREB-1 cells (1W cells) were incubated with a concentration gradient of chimeric llama-human CD70 inhibiting mAbs (20 μg/ml-0.25 ng/ml) and binding of the mAbs to the cells was detected using anti-human IgG-FITC antibody.

[3] = target: T3, rhesus recombinant CD70 (FLAG-TNC-rhesus CD70) (rhesus); assay: inhibition ELISA; FLAG-TNC-rhesus CD70; competitor CD27-Fc
T3 construct: also called rhesus Flag-TNC-CD70
Text: In this assay, Flag-TNC-CD70 is captured by an anti-Flag mAb and binding of CD27-Fc is detected via a biotinylated anti-CD27 mAb and strep-HRP in the absence or presence of CD70 Fabs (FIGS. 2 and 3) or CD70 mAbs (FIG. 4). In FIG. 2B it can be seen that 27B3, which has an identical VH as 9D1, but contains a somewhat different light chain, seems to block binding of CD27 to CD70 more efficiently, which was in line with the better off rate of this Fab as measured on Biacore (data not shown). Table 3 indicates the blocking potency (expressed as IC50) for the various llama-human chimeric mAbs tested in the CD70 inhibition ELISA. […] FIG. 3 is a composite of an experiment testing llama CD70 Fabs for blocking activity (in the inhibition ELISA, see white bars) and for CD70 binding (binding ELISA, black bars). For the binding ELISA, Flag-TNC-CD70 is captured by an anti-Flag mAb and binding of the Fabs is detected using an anti-myc-HRP mAb, which recognizes the MYC tag fused to the C-terminus of the Fd fragment. For comparison purposes, known monoclonal antibodies to CD70 (SGN70 described in US 2010/0129362 A1, clone 1F6; and MDX69A7 described in WO2008/074004 FIGS. 5A and 5B) were tested in parallel. […] Of interest is clone 59D10, which as Fab has no blocking activity, but when converted into a chimeric IgG was antagonistic (see Table 3). […]

[4] = target: T2, recombinant human CD70 (Flag-TNC-CD70); assay: inhibition ELISA; Flag-TNC-CD70 captured by anti-Flag mAb; competitor CD27-Fc
Protocol: From selected phage transfected into TG1, individual colonies were picked randomly for growth in 96 well plates. After IPTG induction according to standard protocols periplasmic fractions (penis) containing Fabs were prepared. […] In this assay, Flag-TNC-CD70 is captured by an anti-Flag mAb and binding of CD27-Fc is detected via a biotinylated anti-CD27 mAb and strep-HRP in the absence or presence of CD70 Fabs (FIGS. 2 and 3) or CD70 mAbs (FIG. 4). In FIG. 2B it can be seen that 27B3, which has an identical VH as 9D1, but contains a somewhat different light chain, seems to block binding of CD27 to CD70 more efficiently, which was in line with the better off rate of this Fab as measured on Biacore (data not shown). Table 3 indicates the blocking potency (expressed as IC50) for the various llama-human chimeric mAbs tested in the CD70 inhibition ELISA. […] FIG. 3 is a composite of an experiment testing llama CD70 Fabs for blocking activity (in the inhibition ELISA, see white bars) and for CD70 binding (binding ELISA, black bars). For the binding ELISA, Flag-TNC-CD70 is captured by an anti-Flag mAb and binding of the Fabs is detected using an anti-myc-HRP mAb, which recognizes the MYC tag fused to the C-terminus of the Fd fragment. For comparison purposes, known monoclonal antibodies to CD70 (SGN70 described in US 2010/0129362 A1, clone 1F6; and MDX69A7 described in WO2008/074004 FIGS. 5A and 5B) were tested in parallel. […] Of interest is clone 59D10, which as Fab has no blocking activity, but when converted into a chimeric IgG was antagonistic (see Table 3). Amino acid sequences of the VH and VL domains of binding and blocking llama-derived Fab clones are shown elsewhere herein (Tables 6-9).

[5] = target: T2, recombinant human CD70 (Flag-TNC-CD70); assay: Biacore; recombinant human CD70 on CM5 chip; Fab from papain digestion
Protocol: Recombinant human CD70 was immobilized on a CM5 Biacore chip. The immobilization was performed in accordance with a method provided by Biacore and by using the NHS/EDC kit (Biacore AB): after activation of the chip, a solution of 50 μg/ml of recombinant CD70 in 10 mM acetate buffer with pH of 5 was prepared and 1 μl of this solution (50ng) was injected resulting in a surface density of approximately 1000 RU.
Fabs were prepared for the CD70 mAbs ARGX-110, MDX1411 and SGN70 by papain digestion. These Fabs, at a concentration of approximately 100-400 μg/ml, were diluted 6-fold in HEPES-buffered saline (0.1M HEPES, 1.5M NaCl, 30 mM EDTA, 0.5% v/v surfactant P20). They were injected (30 μl) and passed through the flow cells at a flow rate of 30 μl/min. After binding of the Fab to CD70, the off-rate was monitored for a period of 10 minutes. After dissociation, the flow cell surfaces were regenerated by injecting 5 μl of 10 mM NaOH. Sometimes multiple injections of NaOH were needed to regenerate the surfaces depending on the affinity of the Fabs. Off-rate analysis was done by applying the BIAevaluation software. First, the sensogram of the blank runs were subtracted from those obtained with the coated flow cell.

Binder | IC50 (ng/ml), IL-8 secretion in Raji / HT1080-CD27 co-culture assay [1] | EC50 [2] | IC50 [3] | IC50 [4] | koff [5]
B1 | 5 ng/mL | 0.083 µg/mL | 0.135 µg/mL | 0.154 µg/mL | 
B2 |  |  |  |  | 0.00014 s⁻¹

Source: patent US20150266963A1 (ARGEN X B V, published 2015)
